Experimental findings from US20190022179A1 (B G NEGEV TECHNOLOGIES AND APPLICATIONS, published 2019) are described below.

The target of experiment [1] is T1, recombinant human SOD1^WT, 6His-tagged (N-term), expressed in E. coli (human, UniProt P00441 2-154, in the MST assay labeled with BLUE fluorescent dye NT-495-NHS (lysine chemistry)).
T1 construct: also called wild type SOD1; not shown: N-terminal 6His tag from pHIS1 vector
As to the kind of experiment: MST fluorescence change, labeled SOD1^WT 200 nM.

Experiment [2] has as its target T2, recombinant human SOD1^G93A, 6His-tagged (N-term), expressed in E. coli (human, UniProt P00441 2-154, G93A, in the MST assay labeled with BLUE fluorescent dye NT-495-NHS (lysine chemistry)).
T2 construct: Dimer by gel filtration, partially monomerizes and precipitates at 37 C; also called SOD1M; not shown: N-terminal 6His tag from pHIS1 vector
As to the kind of experiment: MST instrument, fluorescence change of labeled SOD1^G93A (300 nM), peptide 0-100 µM.

For experiment [3], the target named is T1, recombinant human SOD1^WT, 6His-tagged …. The experiment can be described thus: MST instrument, fluorescence change of labeled SOD1^WT (200 nM), peptide 0-100 µM.
Procedure: Fluorescently labeled recombinant SOD1G93A (300 nM) (FIG. 3A) or SOD1^WT (200 nM) (FIG. 3B) were incubated for 1.5 h at r.t. with increasing concentrations of a peptide, and the fluorescence was measured using an MST instrument (NanoTemper). […] The curves represent the non-linear regression analyses of the data using a logistic (three parameters) function. The results are expressed as the mean±S.D. of at least three independent experiments.
The assessment of peptide binding to the proteins was carried out using Monolith NT.115 (NanoTemper Technologies, Munchen, Germany). […] The final concentration of either DMSO or DMF in the binding buffer was 1%. […] The binding data were analyzed by a non-linear regression using a logistic (three parameter) function implemented in Prism6 (GraphPad) program.
The binding of synthetic peptides to fluorescently labeled SOD1^WT or SOD1^G93A was assessed using a microscale thermophoresis technique (MST).

T1 sequence (P00441 2-154): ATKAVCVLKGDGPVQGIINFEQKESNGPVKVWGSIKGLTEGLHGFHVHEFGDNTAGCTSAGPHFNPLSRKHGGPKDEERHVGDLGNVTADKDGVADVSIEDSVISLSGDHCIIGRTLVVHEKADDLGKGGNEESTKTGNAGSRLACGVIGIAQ
T2 sequence (P00441 2-154 G94A): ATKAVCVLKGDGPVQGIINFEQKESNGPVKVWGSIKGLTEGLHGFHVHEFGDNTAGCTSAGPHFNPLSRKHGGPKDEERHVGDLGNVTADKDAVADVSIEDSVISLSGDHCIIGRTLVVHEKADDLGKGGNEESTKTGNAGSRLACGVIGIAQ

For the molecule DKDGVADVSIEDSVISLSGD (Synthesized by GL Biochem; purity >90%) [peptide SE-11 (SOD1 aa. 90-109)], the binding result in experiment [1] is on record as “no binding (tested: peptide 0-100 µM)”; in experiment [2], “binds”.
Turning to LSGDHCIIGRTLVVHEKADD (Synthesized by GL Biochem; purity >90%) [peptide SE-12 (SOD1 aa. 106-125)], the binding result in experiment [3] and in experiment [2] was “binds” throughout.
